{"source": "patent US20130330359A1", "about": "(AbbVie / Abbott, published 2013)", "binders": {"B1": {"name": "1A-2860-475 (antibody, V domains shown)", "VH": "DVLLQESGPDLVKPSQSLSLTCTVTGYSISSGYSWHWIRQFPGNKLEWMAYIHYTGNTNYNPSLKSRISITRDTSKNQFFLHLNSVTTEDTATYYCALFGLSGFWGQGTLVTVSA", "VL": "DVLMTQTPLSLPVSLGDQASISCRSSQTIVHSNGNTYLDWYLQKPGQSPKVLIYKVSNRFSGVPDRFSGSGSGTDFTLKISRVEAEDLGVYFCLQGSHVPWTFGGGTQLEIKR", "notes": "The parent line 1A-2860 and subclone 1A-2860-177 used in the assays are treated here as the same antibody; also called 1A-2860-177"}, "B2": {"name": "1B-3363-715 (antibody, V domains shown)", "VH": "DVQLQESGPDLVKPSQSLSLTCTVTGYSITSGYSWHWIRQFPGNKLEWMGYIHYSGNTDYNPSLKSRISFTRDTSKNQFFLQLNSVTTEDTATYFCAIGTGPWGQGTTLTVSS", "VL": "B1 VL with T28N, N35H, D39E, V51L, F92Y, L94F, Q108K", "notes": "The parent line 1B-3363 and subclone 1B-3363-502 used in the assays are treated here as the same antibody; also called 1B-3363-502"}, "B3": {"name": "1A-2989-187 (antibody, V domains shown)", "VH": "EVQLQQSGAELVRSGASVKLSCTASGFNIRDFYIHWVKQRPEQGLEWLGWIDPENGDIEYAPKFQGKATMTADTSSNTAYLQLNSLTSEDTALYYCNGNGYYLDYWGQGTTLTVSS", "VL": "not shown"}}, "note": "Substitutions are numbered along the chain they refer to."}
{"biological_target": "T1, RGMc antigen: amino acids 33-391 of RGMc followed by human Fc (human, UniProt Q6ZVN8 33-391)", "T1 construct": "also called RGMc-huFc; RGMc-Fc; not shown: human Fc", "T1 sequence": "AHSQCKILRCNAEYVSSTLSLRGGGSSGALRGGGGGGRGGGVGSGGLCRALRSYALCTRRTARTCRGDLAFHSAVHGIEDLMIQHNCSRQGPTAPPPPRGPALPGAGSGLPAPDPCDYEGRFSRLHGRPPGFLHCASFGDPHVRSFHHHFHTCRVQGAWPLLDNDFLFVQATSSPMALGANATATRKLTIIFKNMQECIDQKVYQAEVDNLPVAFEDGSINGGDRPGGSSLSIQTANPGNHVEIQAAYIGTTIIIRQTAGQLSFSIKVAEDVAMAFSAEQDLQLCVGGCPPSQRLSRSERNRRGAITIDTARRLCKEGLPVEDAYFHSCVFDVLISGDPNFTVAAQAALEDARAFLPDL", "assay": "chemiluminescence immunoassay: supernatant mAb captured on sheep anti-mouse IgG Fc, RGMc-huFc at 200 ng/mL, acridinium-labeled goat anti-RGMc detection", "protocol": "Cell supernatant samples were analyzed for anti-RGMc antibodies by Chemiluminescence immunoassay (CIA). Sheep anti-mouse IgG Fc (Jackson Immunoresearch, West Grove, Pa.) was coated on 96 well micro-titer CIA plates (NUNC) at 5 ug/mL. After the capture reagent had been coated on the solid phase, it was removed and any open binding sites on the plates were blocked using a Fish gel/PBS (2% v/v) block solution. The wells were washed with distilled water and cell supernatants were added to the blocked plates and allowed to incubate at room temperature for at least one hour. The anti-mouse IgG Fc captures the anti-RGMc mouse antibody from the supernatant. Following the incubation, the supernatants were washed off using distilled water. A mouse/human IgG chimeric antibody (Abbott Laboratories) diluted in fish gel block to 5 ug/ml was added to each well and incubated for approximately 30 minutes at room temperature to block any captured mAbs that are specific for human IgG Fc portion of the immunogen. Following the incubation, the human IgG blocking solution was washed off using distilled water. RGMc-huFc antigen was then added to the plates at 200 ng/mL in fish gel block and incubated for 30 minutes at room temperature. Following this incubation, the antigen was washed from the plates using distilled water. Acridinium labeled goat anti-RGMc polyclonal antibody (R&D Systems, Minneapolis, Minn.) was diluted to 200 ng/ml in fish gel block, then added to the plates and allowed to incubate for 30 minutes at room temperature. The plates were washed with distilled water then processed on the Microbeta Jet instrument (Perkin Elmer, Waltham, Mass.). The Microbeta Jet adds Architect© Pre-Trigger and Trigger solutions (Abbott Laboratories). The plates are then read for flash chemiluminescence in luminescent counts per second (LCPS). […] The positive control (PC) used in this assay was spent medium from unfused splenocytes harvested from mouse #814 that were cultured for 7 to 10 days at 37° C.", "units": {"LCPS": "LCPS"}}
{"binder": "B1", "LCPS": 6610}
{"binder": "B2", "LCPS": 5260}
{"binder": "B3", "LCPS": 2500}
{"biological_target": "T1, RGMc antigen: amino acids 33-391 of …", "assay": "direct EIA: RGMc-huFc coated at 1.0 ug/mL; supernatant diluted 1:125; goat anti-mouse IgG Fc-HRPO", "protocol": "A mouse:human chimeric antibody or RGMc-huFc was coated on the solid phase of micro-titer EIA plates at 1.0 ug/mL. After the antigen had been coated on the solid phase, it was removed and any open binding sites on the plates were blocked using BSA block solution. The wells were washed with distilled water. Cell supernatants and control reagents were added to the blocked plates and allowed to incubate at room temperature for at least one hour. The negative control was a purified mAb from a different antigen system. The positive control for human IgG was a purified anti-hu IgG mAb developed against another antigen containing human IgG Fc carrier protein. The RGMc positive control is Novus mab 1C12. Following this incubation, the solutions were removed from the plates and they were washed with distilled water. Goat anti-mouse IgG Fc-HRPO (Jackson Immunoresearch) diluted to approximately 200 ng/mL in block solution was added to the plates and allowed to incubate for 30 minutes at room temperature. The plates were washed with distilled water and o-phenylenediamine substrate (Abbott Laboratories) was used as the chromogen to generate signal. Plates were read at 492 nm and the results were analyzed."}
{"binder": "B1", "absorbance at 492 nm": 1.66}
{"binder": "B2", "absorbance at 492 nm": 2.8}
{"binder": "B3", "absorbance at 492 nm": 1.55}
{"biological_target": "T2, carrier free RGMb (R&D Systems) (UniProt Q6NW40 46-413, limits assumed)", "T2 construct": "also called RGMb-CF", "T2 sequence (looked up)": "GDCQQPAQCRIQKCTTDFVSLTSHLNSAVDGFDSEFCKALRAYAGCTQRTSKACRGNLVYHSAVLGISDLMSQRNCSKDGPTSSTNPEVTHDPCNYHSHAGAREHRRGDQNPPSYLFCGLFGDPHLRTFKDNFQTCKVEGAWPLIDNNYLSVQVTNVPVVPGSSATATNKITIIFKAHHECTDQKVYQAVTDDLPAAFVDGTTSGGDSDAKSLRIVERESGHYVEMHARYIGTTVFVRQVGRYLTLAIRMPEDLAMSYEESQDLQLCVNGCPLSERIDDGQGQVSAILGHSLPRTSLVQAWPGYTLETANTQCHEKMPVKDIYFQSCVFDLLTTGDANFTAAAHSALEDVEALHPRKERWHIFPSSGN", "assay": "EIA on coated carrier-free RGMb (summary of specificity)", "protocol": "Clones were then tested for cross-reactivity with RGMa and RGMb by EIA. Carrier free RGMa, RGMb, or RGMc (R&D Systems) was coated on the solid phase of micro-titer EIA plates at 0.5 ug/mL. After the antigen had been coated on the solid phase, it was removed and any open binding sites on the plates were blocked using fish gel block solution. The wells were washed with distilled water following this incubation. Cell supernatants and control reagents were added to the blocked plates and allowed to incubate at room temperature for at least one hour. The negative control was a purified mouse mAb from a different antigen system. The positive control for RGMa, RGMb, & RGMc was a goat anti-RGMa, RGMb, or RGMc polyclonal antibody (R&D Systems). Following this incubation, the solutions were removed from the plates and they were washed with distilled water. Donkey anti-Goat IgG-HRPO diluted to approximately 200 ng/mL in block solution was added to the plates with the positive control test samples and goat anti-mouse IgG-HRPO (Jackson Immunoresearch) diluted to approximately 200 ng/mL in block solution was added to the plates with the fusion #1 test samples. All plates were allowed to incubate for 30 minutes at room temperature. The plates were washed with distilled water and o-phenylenediamine substrate was used as the chromogen to generate signal. Plates were read at 492 nm and the results were analyzed."}
{"binder": "B1", "binding result": "no binding"}
{"binder": "B2", "binding result": "no binding"}
{"binder": "B3", "binding result": "no binding"}
